One may read the stoichiometry N as a count of units in the complex or per binding partner.

This note sets out measurements from paper PMC9042962.

For this assay, the target named is GFP-BLM (full-length Bloom helicase, GFP fusion protein) (human) (UniProt P54132). Put plainly: photobleaching step counting (single-molecule TIRFM, DNA curtain); GFP-tagged BLM (0.2 nM injected) bound to the free ends (30-nt 3' ssDNA overhang) of lambda-DNA tethered to a lipid bilayer; number of GFP photobleaching steps per end-bound complex; BLM buffer (20 mM Tris-HCl pH 7.5, 1 mM MgCl2, 2 mM ATP, 1 mM DTT, 0.2 mg/ml BSA), 37 °C; oligomer counted on DNA ends.

Substance “GFP-BLM (full-length Bloom helicase, GFP fusion protein), P54132 1-1417 (enzyme; other documents disagree on this pair)” returned a stoichiometry N of 1 to 6 monomers and a stoichiometry N (BLM monomers per DNA end) of 3.6.
